According to publication PMC3636079, “Determinants at the N- and C-termini of Gα12 required for activation of Rho-mediated signaling” (Journal of Molecular Signaling, 2013):

B1: myc-tagged Gα12 Gln^229Leu (myc-Gα12^QL) [not stated] / GST fusion of protein phosphatase-5 [not stated] (parent)
chain 1: MSGVVRTLSRCLLPAEAGARERRAGAARDAEREARRRSRDIDALLARERRAVRRLVKILLLGAGESGKSTFLKQMRIIHGREFDQKALLEFRDTIFDNILKGSRVLVDARDKLGIPWQHSENEKHGMFLMAFENKAGLPVEPATFQLYVPALSALWRDSGIREAFSRRSEFQLGESVKYFLDNLDRIGQLNYFPSKQDILLARKATKGIVEHDFVIKKIPFKMVDVGGLRSQRQKWFQCFDGITSILFMVSSSEYDQVLMEDRRTNRLVESMNIFETIVNNKLFFNVSIILFLNKMDLLVEKVKSVSIKKHFPDFKGDPHRLEDVQRYLVQCFDRKRRNRSKPLFHHFTTAIDTENIRFVFHAVKDTILQENLKDIMLQ
chain 2: MAMAEGERTECAEPPRDEPPADGALKRAEELKTQANDYFKAKDYENAIKFYSQAIELNPSNAIYYGNRSLAYLRTECYGYALGDATRAIELDKKYIKGYYRRAASNMALGKFRAALRDYETVVKVKPHDKDAKMKYQECNKIVKQKAFERAIAGDEHKRSVVDSLDIESMTIEDEYSGPKLEDGKVTISFMKELMQWYKDQKKLHRKCAYQILVQVKEVLSKLSTLVETTLKETEKITVCGDTHGQFYDLLNIFELNGLPSETNPYIFNGDFVDRGSFSVEVILTLFGFKLLYPDHFHLLRGNHETDNMNQIYGFEGEVKAKYTAQMYELFSEVFEWLPLAQCINGKVLIMHGGLFSEDGVTLDDIRKIERNRQPPDSGPMCDLLWSDPQPQNGRSISKRGVSCQFGPDVTKAFLEENNLDYIIRSHEVKAEGYEVAHGGRCVTVFSAPNYCDQMGNKASYIHLQGSDLRPQFHQFTAVPHPNVKPMAYANTLLQLGMM

Variants of: B1
Assay: GST pull-down (co-precipitation), immunoblot pulldown:load ratio
Conditions: with GST fusion of protein phosphatase-5; grade: ++; mean of two or more trials; parent: 100

Percent of parent (% of myc-Gα12QL pulldown:load ratio), > 60:
chain 1 I352N D353A T354A E355I N356R I357S
chain 1 R28N D29A E31I E33S
chain 1 V52N R53A R54A L55I V56R K57S
chain 1 R340N S341A K342A P343I L344R F345S
chain 1 H346N H347A F348A T349I T350R A351S
chain 1 R358N F359A V360A F361I H362R A363S
chain 1 K316N G317A D318A P319I H320R R321S
